According to the supplement of paper PMC9112550, “Optimization of the antimicrobial peptide Bac7 by deep mutational scanning” (BMC Biology, 2022):

Test system: Escherichia coli TOP10
Experiment: shrunken log2 fold change of peptide-encoding DNA abundance (4.5 h post-induction vs induction); higher = less antimicrobial activity (less host growth inhibition)
Conditions: time post-induction: 4.5 h; library: site-saturation at positions 5, 18, 19, 20
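Further: peptides expressed intracellularly from a pBAD plasmid library in pooled LB shake-flask culture, induced with 0.3% L-arabinose, DNA abundance read by NGS, three biological replicates, DESeq2 with apeglm shrinkage.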

| Sequence | shrunken log2 fold change |
| --- | --- |
| RRIRWRPPRLPRPRPRPQRDPRP | -0.0245 |
| RRIRKRPPRLPRPRPRPNHGPRP | -0.0607 |
| RRIRPRPPRLPRPRPRPSERPRP | -0.0297 |
| RRIRYRPPRLPRPRPRPECCPRP | -0.0698 |
| RRIRLRPPRLPRPRPRPPYMPRP | -0.205 |
| RRIRVRPPRLPRPRPRPCMYPRP | -0.387 |
| RRIRSRPPRLPRPRPRPGNNPRP | -0.354 |
| RRIRQRPPRLPRPRPRPWRRPRP | 0.241 |
| RRIRVRPPRLPRPRPRPVVPPRP | 0.132 |
| RRIRVRPPRLPRPRPRPKPFPRP | 0.00969 |
| RRIRNRPPRLPRPRPRPSKCPRP | -0.126 |
| RRIRIRPPRLPRPRPRPYQHPRP | -0.136 |
| RRIRFRPPRLPRPRPRPMQRPRP | 0.226 |
| RRIRHRPPRLPRPRPRPVSVPRP | -0.225 |
| RRIRRRPPRLPRPRPRPCHPPRP | -0.0611 |
| RRIRVRPPRLPRPRPRPLKYPRP | -0.136 |
| RRIRTRPPRLPRPRPRPIFKPRP | -0.128 |
| RRIRIRPPRLPRPRPRPYHQPRP | 0.0196 |
| RRIRQRPPRLPRPRPRPEPSPRP | 0.102 |
| RRIRDRPPRLPRPRPRPTVRPRP | 0.0184 |
| RRIRSRPPRLPRPRPRPYQEPRP | -0.157 |
| RRIRLRPPRLPRPRPRPKINPRP | -0.396 |
| RRIRERPPRLPRPRPRPHAAPRP | -0.0217 |
| RRIRTRPPRLPRPRPRPHMPPRP | -0.422 |
| RRIRTRPPRLPRPRPRPVNIPRP | -0.136 |

| Sequence | shrunken log2 fold change |
| --- | --- |
| RRIRERPPRLPRPRPRPQYRPRP | -0.612 |
| RRIRKRPPRLPRPRPRPSMGPRP | -0.267 |
| RRIRHRPPRLPRPRPRPSFKPRP | -0.6 |
| RRIRYRPPRLPRPRPRPIQIPRP | -0.409 |
| RRIRKRPPRLPRPRPRPYNTPRP | -0.339 |
| RRIRRRPPRLPRPRPRPPLNPRP | 0.696 |
| RRIRRRPPRLPRPRPRPAQDPRP | 0.349 |
| RRIRLRPPRLPRPRPRPWWDPRP | -0.305 |
| RRIRGRPPRLPRPRPRPLDAPRP | 0.969 |
| RRIRDRPPRLPRPRPRPCQCPRP | -0.017 |
| RRIRPRPPRLPRPRPRPTHPPRP | 0.653 |
| RRIRCRPPRLPRPRPRPMDKPRP | -0.131 |
| RRIRPRPPRLPRPRPRPPEIPRP | -0.0297 |
| RRIRARPPRLPRPRPRPSWMPRP | -0.131 |
| RRIRDRPPRLPRPRPRPMMWPRP | 0.156 |
| RRIRWRPPRLPRPRPRPDHQPRP | -0.197 |
| RRIRKRPPRLPRPRPRPKDWPRP | 0.742 |
| RRIRWRPPRLPRPRPRPNNGPRP | -0.165 |
| RRIRYRPPRLPRPRPRPEPFPRP | 0.0898 |
| RRIRERPPRLPRPRPRPWHWPRP | -0.0299 |
| RRIRARPPRLPRPRPRPQWWPRP | 0.464 |
| RRIRIRPPRLPRPRPRPRNCPRP | -0.271 |
| RRIRQRPPRLPRPRPRPQHMPRP | 0.0284 |
| RRIRRRPPRLPRPRPRPALRPRP | 0.648 |
| RRIRMRPPRLPRPRPRPANHPRP | 0.0312 |

| Sequence | shrunken log2 fold change |
| --- | --- |
| RRIRMRPPRLPRPRPRPCCAPRP | 0.78 |
| RRIRIRPPRLPRPRPRPNFHPRP | -0.52 |
| RRIRCRPPRLPRPRPRPGTKPRP | -0.404 |
| RRIRQRPPRLPRPRPRPSVAPRP | -0.0735 |
| RRIRARPPRLPRPRPRPAPNPRP | 0.737 |
| RRIRTRPPRLPRPRPRPKEKPRP | 0.0414 |
| RRIRYRPPRLPRPRPRPTEWPRP | -0.0714 |
| RRIRVRPPRLPRPRPRPMKAPRP | 0.0113 |
| RRIRHRPPRLPRPRPRPGQVPRP | -0.00149 |
| RRIRWRPPRLPRPRPRPYISPRP | -0.816 |
| RRIRNRPPRLPRPRPRPMHGPRP | -0.0225 |
| RRIRCRPPRLPRPRPRPVPHPRP | 0.0468 |
| RRIRKRPPRLPRPRPRPFLMPRP | 0.043 |
| RRIRYRPPRLPRPRPRPGCNPRP | -0.172 |
| RRIRGRPPRLPRPRPRPWWKPRP | 0.0639 |
| RRIRNRPPRLPRPRPRPQGPPRP | 0.0355 |
| RRIRHRPPRLPRPRPRPQWYPRP | -0.0605 |
| RRIRRRPPRLPRPRPRPIGHPRP | 0.113 |
| RRIRGRPPRLPRPRPRPEASPRP | 0.708 |
| RRIRPRPPRLPRPRPRPKSHPRP | -0.246 |
| RRIRPRPPRLPRPRPRPFWYPRP | -0.525 |
| RRIRIRPPRLPRPRPRPMWKPRP | -0.0693 |
| RRIRKRPPRLPRPRPRPSKRPRP | 0.0981 |
| RRIRCRPPRLPRPRPRPLEHPRP | -0.167 |
| RRIRRRPPRLPRPRPRPAIRPRP | -0.0892 |
